B1: Ceroid-lipofuscinosis neuronal protein 6 (Homo sapiens), Q9NWW5 (parent)
chain: MEATRRRQHLGATGGPGAQLGASFLQARHGSVSADEAARTAPFHLDLWFYFTLQNWVLDFGRPIAMLVFPLEWFPLNKPSVGDYFHMAYNVITPFLLLKLIERSPRTLPRSITYVSIIIFIMGASIHLVGDSVNHRLLFSGYQHHLSVRENPIIKNLKPETLIDSFELLYYYDEYLGHCMWYIPFFLILFMYFSGCFTASKAESLIPGPALLLVAPSGLYYWYLVTEGQIFILFIFTFFAMLALVLHQKRKRLFLDSNGLFLFSSFALTLLLVALWVAWLWNDPVLRKKYPGVIYVPEPWAFYTLHVSSRH
partner: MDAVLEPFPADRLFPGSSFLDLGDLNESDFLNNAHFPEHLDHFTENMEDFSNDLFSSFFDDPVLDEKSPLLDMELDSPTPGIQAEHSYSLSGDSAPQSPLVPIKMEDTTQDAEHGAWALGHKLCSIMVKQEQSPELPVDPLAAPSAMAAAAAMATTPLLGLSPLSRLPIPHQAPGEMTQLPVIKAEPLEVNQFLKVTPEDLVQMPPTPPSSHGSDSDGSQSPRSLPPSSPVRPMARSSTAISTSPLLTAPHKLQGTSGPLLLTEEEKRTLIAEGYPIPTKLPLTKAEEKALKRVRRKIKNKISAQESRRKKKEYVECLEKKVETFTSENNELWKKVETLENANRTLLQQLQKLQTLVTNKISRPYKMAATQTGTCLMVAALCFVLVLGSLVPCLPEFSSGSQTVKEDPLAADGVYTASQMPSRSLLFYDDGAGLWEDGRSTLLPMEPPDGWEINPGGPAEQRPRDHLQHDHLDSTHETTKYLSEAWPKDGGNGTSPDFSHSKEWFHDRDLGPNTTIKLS
B2: Golgi SNAP receptor complex member 2 (Homo sapiens), O14653 (parent)
chain: MDPLFQQTHKQVHEIQSCMGRLETADKQSVHIVENEIQASIDQIFSRLERLEILSSKEPPNKRQNARLRVDQLKYDVQHLQTALRNFQHRRHAREQQERQREELLSRTFTTNDSDTTIPMDESLQFNSSLQKVHNGMDDLILDGHNILDGLRTQRLTLKGTQKKILDIANMLGLSNTVMRLIEKRAFQDKYFMIGGMLLTCVVMFLVVQYLT
partner: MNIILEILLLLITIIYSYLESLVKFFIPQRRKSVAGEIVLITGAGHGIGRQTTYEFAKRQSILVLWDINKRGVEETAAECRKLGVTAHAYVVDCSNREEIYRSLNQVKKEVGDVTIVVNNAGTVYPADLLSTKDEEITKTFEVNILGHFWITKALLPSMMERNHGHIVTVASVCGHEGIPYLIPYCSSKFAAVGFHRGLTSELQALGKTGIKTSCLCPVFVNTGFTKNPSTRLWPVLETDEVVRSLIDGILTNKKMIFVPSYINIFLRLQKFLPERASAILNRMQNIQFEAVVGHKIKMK
B3: Succinate--CoA ligase [ADP-forming] subunit beta, mitochondrial (Homo sapiens), Q9P2R7 (parent)
chain: MAASMFYGRLVAVATLRNHRPRTAQRAAAQVLGSSGLFNNHGLQVQQQQQRNLSLHEYMSMELLQEAGVSVPKGYVAKSPDEAYAIAKKLGSKDVVIKAQVLAGGRGKGTFESGLKGGVKIVFSPEEAKAVSSQMIGKKLFTKQTGEKGRICNQVLVCERKYPRREYYFAITMERSFQGPVLIGSSHGGVNIEDVAAESPEAIIKEPIDIEEGIKKEQALQLAQKMGFPPNIVESAAENMVKLYSLFLKYDATMIEINPMVEDSDGAVLCMDAKINFDSNSAYRQKKIFDLQDWTQEDERDKDAAKANLNYIGLDGNIGCLVNGAGLAMATMDIIKLHGGTPANFLDVGGGATVHQVTEAFKLITSDKKVLAILVNIFGGIMRCDVIAQGIVMAVKDLEIKIPVVVRLQGTRVDDAKALIADSGLKILACDDLDEAARMVVKLSEIVTLAKQAHVDVKFQLPI
partner: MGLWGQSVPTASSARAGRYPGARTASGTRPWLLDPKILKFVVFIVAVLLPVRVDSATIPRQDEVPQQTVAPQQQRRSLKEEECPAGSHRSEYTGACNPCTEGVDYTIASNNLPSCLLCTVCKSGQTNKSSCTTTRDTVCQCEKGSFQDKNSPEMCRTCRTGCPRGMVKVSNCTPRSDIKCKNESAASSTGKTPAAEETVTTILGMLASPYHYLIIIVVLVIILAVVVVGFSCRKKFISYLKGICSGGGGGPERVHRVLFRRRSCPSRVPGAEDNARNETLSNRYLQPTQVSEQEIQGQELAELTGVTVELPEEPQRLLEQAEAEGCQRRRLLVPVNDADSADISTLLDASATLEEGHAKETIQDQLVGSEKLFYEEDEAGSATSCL
B4: Very-long-chain enoyl-CoA reductase (Homo sapiens), Q9NZ01 (parent)
chain: MKHYEVEILDAKTREKLCFLDKVEPHATIAEIKNLFTKTHPQWYPARQSLRLDPKGKSLKDEDVLQKLPVGTTATLYFRDLGAQISWVTVFLTEYAGPLFIYLLFYFRVPFIYGHKYDFTSSRHTVVHLACICHSFHYIKRLLETLFVHRFSHGTMPLRNIFKNCTYYWGFAAWMAYYINHPLYTPPTYGAQQVKLALAIFVICQLGNFSIHMALRDLRPAGSKTRKIPYPTKNPFTWLFLLVSCPNYTYEVGSWIGFAIMTQCLPVALFSLVGFTQMTIWAKGKHRSYLKEFRDYPPLRMPIIPFLL
partner: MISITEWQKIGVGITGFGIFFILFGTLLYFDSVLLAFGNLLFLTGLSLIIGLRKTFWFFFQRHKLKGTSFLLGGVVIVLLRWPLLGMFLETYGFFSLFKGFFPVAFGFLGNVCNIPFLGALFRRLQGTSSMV
B5: Golgi SNAP receptor complex member 2 (Homo sapiens), O14653 (parent)
chain: B2 chain
partner: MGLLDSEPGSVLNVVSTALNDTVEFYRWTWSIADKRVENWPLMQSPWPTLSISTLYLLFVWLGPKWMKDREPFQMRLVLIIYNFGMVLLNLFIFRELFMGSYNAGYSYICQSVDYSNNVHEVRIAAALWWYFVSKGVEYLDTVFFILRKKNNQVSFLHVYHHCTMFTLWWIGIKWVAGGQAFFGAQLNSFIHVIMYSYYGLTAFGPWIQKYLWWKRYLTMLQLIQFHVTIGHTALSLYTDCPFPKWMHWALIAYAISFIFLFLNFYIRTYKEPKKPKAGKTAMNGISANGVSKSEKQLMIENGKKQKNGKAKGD
B6: Very-long-chain enoyl-CoA reductase (Homo sapiens), Q9NZ01 (parent)
chain: B4 chain
partner: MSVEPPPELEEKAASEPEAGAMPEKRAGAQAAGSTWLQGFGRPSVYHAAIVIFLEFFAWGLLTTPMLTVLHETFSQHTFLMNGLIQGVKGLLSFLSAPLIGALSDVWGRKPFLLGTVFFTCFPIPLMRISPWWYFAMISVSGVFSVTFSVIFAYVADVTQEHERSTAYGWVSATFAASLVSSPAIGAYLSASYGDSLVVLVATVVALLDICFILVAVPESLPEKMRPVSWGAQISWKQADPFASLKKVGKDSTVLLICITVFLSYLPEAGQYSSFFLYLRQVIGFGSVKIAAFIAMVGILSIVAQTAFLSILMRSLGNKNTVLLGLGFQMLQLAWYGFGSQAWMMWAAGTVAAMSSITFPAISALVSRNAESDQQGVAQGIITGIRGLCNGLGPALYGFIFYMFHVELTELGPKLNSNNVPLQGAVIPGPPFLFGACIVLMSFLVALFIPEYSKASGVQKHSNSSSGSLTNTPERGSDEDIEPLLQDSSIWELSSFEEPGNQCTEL
B7: Ceroid-lipofuscinosis neuronal protein 6 (Homo sapiens), Q9NWW5 (parent)
chain: B1 chain
partner: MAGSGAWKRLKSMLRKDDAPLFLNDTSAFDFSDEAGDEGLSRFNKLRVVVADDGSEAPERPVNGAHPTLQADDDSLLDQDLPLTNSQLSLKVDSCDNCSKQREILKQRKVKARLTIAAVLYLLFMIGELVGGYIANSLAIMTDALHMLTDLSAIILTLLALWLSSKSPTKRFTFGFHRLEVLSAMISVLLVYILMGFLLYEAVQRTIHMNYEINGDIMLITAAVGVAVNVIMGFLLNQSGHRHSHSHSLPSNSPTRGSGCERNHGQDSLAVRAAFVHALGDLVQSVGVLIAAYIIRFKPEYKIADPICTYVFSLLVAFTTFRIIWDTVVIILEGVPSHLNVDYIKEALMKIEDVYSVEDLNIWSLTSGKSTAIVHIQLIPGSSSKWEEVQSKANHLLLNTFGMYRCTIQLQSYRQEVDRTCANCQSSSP
B8: Golgi SNAP receptor complex member 2 (Homo sapiens), O14653 (parent)
chain: B2 chain
partner: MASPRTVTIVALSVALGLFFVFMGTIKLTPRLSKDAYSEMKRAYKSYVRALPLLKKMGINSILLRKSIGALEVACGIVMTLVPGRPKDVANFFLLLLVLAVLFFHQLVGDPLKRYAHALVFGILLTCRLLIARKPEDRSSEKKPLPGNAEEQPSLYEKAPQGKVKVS
B9: Ceroid-lipofuscinosis neuronal protein 6 (Homo sapiens), Q9NWW5 (parent)
chain: B1 chain
partner: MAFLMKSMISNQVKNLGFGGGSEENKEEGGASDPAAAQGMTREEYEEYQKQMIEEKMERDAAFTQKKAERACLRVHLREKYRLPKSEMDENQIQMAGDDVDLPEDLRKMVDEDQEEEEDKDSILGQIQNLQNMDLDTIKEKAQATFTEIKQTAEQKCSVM
B10: Ceroid-lipofuscinosis neuronal protein 6 (Homo sapiens), Q9NWW5 (parent)
chain: B1 chain
partner: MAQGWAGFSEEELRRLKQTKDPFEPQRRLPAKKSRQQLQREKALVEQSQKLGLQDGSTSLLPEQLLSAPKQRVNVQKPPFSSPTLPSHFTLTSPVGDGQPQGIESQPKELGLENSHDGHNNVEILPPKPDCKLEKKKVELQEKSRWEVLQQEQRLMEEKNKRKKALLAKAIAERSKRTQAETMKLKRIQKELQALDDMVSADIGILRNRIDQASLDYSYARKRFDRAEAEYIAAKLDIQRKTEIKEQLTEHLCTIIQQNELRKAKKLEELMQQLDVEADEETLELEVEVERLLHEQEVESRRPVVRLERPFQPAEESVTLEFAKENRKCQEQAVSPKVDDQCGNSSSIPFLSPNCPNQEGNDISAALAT

Variants of: B1
Settings: with cr3l1_human CREB3L1, Q96BA8

| Variant | effect of a mutation on the interaction |
| --- | --- |
| G123D | with no effect |
| R6T | with no effect |
| L47F | with no effect |

Variants of: B2
Settings: with dhb13_human HSD17B13, Q7Z5P4

| Variant | effect of a mutation on the interaction |
| --- | --- |
| G144W | with no effect |

Variants of: B3
Settings: with tr10d_human TNFRSF10D

| Variant | effect of a mutation on the interaction |
| --- | --- |
| D251N | disrupting interaction strength |
| G118R | disrupting interaction strength |

Variants of: B4
Settings: with got1a_human GOLT1A

| Variant | effect of a mutation on the interaction |
| --- | --- |
| P182L | with no effect |

Variants of: B5
Settings: with elov4_human ELOVL4, Q9GZR5

| Variant | effect of a mutation on the interaction |
| --- | --- |
| G144W | with no effect |

Variants of: B6
Settings: with mf14b_human MFSD14B

| Variant | effect of a mutation on the interaction |
| --- | --- |
| P182L | disrupting interaction strength |

Variants of: B7
Settings: with znt4_human SLC30A4, O14863

| Variant | effect of a mutation on the interaction |
| --- | --- |
| G123D | disrupting interaction strength |

Variants of: B8
Settings: with nacho_human TMEM35A

| Variant | effect of a mutation on the interaction |
| --- | --- |
| G144W | with no effect |

Variants of: B9
Settings: with cplx4_human CPLX4, Q7Z7G2

| Variant | effect of a mutation on the interaction |
| --- | --- |
| G123D | with no effect |
| L47F | with no effect |
| R6T | with no effect |

Variants of: B10
Settings: with gorab_human GORAB

| Variant | effect of a mutation on the interaction |
| --- | --- |
| G123D | with no effect |
| L47F | with no effect |
| R6T | with no effect |

Source: IntAct's records for PubMed 32296183
